The values that follow come from paper PMC3029386, “Determinants Outside the DevR C-Terminal Domain Are Essential for Cooperativity and Robust Activation of Dormancy Genes in Mycobacterium tuberculosis”.

Series [1] has as its target DevRC (DevR C-terminal domain) (Mycobacterium tuberculosis H37Rv, UniProt P9WMF9 141-217). As to the kind of experiment: EMSA. The settings on record: protein: recombinant; tags: N-terminal His6 (pET28a, pUS-DevRC); chain copies: 2. In general terms: In EMSA bound probe runs differently from free probe, usually more slowly.
The target in series [2] is DevR (full-length) (Mycobacterium tuberculosis, UniProt P9WMF9 1-217). Briefly: EMSA. The settings on record: protein: recombinant; tags: N-terminal His6 (pAV-DevR); chain copies: 2.
Sequence of DevR (full-length) (P9WMF9 whole entry): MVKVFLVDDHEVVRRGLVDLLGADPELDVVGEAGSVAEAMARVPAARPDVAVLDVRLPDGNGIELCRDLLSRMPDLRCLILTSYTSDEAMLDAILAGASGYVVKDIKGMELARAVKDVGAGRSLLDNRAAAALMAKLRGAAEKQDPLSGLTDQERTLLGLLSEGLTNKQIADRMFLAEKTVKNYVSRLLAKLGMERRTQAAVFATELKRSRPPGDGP

Sequence of DevRC (DevR C-terminal domain) (P9WMF9 141-217): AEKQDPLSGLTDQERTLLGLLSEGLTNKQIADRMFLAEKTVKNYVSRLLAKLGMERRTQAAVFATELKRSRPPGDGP

B1: P+S box (LH1/LH2), tgs1-Rv3131 promoter (dsDNA)
DNA 1: CGAGTCGACAGAGCACGAAGGCTCGCCAGCGGAGGACCTTTGGCCCTGCGTCGACCGA
DNA 2: TCGGTCGACGCAGGGCCAAAGGTCCTCCGCTGGCGAGCCTTCGTGCTCTGGTCGACTCG
For the molecule B1, the binding result in series [1] and in series [2] was “binds” each time.
